Assay results reported in patent publication US20160102121A1 (UNIVERSITY OF NORTH CAROLINA AT CHAPEL HILL, published 2016).
Where no end group is shown, it is not given here. [ ]: non-standard residue; d: D form. Nle = CCCC[C@H](N)C(=O)O

Target: epithelial Na+ channel (ENaC) on human bronchial epithelial cultures (human, UniProt P37088 1-669; P51168 1-640; P51170 1-649)
Experiment: cell-based or functional assay

epithelial Na+ channel (ENaC) on human bronchial epithelial cultures, sequence (P37088 whole entry, chain 1 of 3): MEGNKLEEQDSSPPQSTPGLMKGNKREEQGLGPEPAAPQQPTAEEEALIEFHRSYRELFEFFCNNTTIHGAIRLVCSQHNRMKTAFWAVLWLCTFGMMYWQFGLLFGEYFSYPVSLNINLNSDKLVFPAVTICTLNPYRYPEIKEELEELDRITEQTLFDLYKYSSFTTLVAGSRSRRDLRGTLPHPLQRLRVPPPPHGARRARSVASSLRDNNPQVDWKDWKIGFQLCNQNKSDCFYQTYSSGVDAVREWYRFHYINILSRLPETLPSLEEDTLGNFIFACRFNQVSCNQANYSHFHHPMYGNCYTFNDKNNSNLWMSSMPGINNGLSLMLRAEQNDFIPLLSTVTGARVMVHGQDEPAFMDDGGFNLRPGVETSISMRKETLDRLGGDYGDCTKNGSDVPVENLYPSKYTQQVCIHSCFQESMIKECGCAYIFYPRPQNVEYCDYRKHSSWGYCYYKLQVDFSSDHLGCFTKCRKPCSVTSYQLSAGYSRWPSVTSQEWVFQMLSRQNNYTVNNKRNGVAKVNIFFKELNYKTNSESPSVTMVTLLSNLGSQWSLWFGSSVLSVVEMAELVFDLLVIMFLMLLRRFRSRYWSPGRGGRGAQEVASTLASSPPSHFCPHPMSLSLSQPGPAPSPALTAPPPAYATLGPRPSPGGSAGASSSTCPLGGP
epithelial Na+ channel (ENaC) on human bronchial epithelial cultures, sequence (P51168 whole entry, chain 2 of 3): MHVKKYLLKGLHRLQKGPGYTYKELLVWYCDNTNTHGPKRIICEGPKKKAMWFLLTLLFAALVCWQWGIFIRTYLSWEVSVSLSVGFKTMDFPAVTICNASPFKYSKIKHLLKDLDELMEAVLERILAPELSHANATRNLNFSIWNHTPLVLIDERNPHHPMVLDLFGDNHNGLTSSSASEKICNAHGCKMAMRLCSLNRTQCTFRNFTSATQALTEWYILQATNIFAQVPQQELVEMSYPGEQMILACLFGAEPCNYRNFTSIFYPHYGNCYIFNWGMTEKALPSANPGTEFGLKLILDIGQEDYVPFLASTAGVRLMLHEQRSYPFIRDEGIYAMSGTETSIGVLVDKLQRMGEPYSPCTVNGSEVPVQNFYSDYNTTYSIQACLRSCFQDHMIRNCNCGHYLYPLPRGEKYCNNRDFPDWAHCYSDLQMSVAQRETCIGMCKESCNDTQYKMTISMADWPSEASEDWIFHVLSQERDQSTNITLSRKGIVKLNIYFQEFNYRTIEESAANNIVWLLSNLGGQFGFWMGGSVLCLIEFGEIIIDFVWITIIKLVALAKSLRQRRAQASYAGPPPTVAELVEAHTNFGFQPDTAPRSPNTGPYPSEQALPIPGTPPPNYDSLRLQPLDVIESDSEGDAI
epithelial Na+ channel (ENaC) on human bronchial epithelial cultures, sequence (P51170 whole entry, chain 3 of 3): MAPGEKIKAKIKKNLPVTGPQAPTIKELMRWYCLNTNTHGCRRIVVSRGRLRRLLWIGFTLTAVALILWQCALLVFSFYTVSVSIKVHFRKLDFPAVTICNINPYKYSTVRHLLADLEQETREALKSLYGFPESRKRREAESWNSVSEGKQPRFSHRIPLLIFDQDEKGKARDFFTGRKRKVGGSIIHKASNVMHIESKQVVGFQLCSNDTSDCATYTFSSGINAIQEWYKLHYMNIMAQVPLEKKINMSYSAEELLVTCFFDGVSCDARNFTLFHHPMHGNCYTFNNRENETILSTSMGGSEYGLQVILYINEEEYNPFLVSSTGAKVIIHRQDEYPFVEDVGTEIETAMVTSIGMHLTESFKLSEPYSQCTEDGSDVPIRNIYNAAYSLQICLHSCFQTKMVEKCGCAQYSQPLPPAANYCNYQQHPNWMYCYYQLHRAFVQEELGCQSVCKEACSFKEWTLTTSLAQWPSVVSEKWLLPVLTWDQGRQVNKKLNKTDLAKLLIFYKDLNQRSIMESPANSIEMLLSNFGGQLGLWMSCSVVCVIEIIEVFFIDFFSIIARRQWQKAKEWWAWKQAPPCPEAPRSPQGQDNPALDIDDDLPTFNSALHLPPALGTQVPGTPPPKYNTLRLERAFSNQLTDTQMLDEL

[dA][dA]LP[Nle]PLDQT[dA][dA] [aaLPNlePLDQTaa (SEQ ID NO:5)]
IC50, dose response on airway cells (ASL height): 30 nM
